Measurements from US20140335107A1 (published 2014).

T1: extracellular domain of human CD79b (huCD79becd) (human, UniProt P40259 29-159)
T1 construct: expressed in CHO cells
T1 sequence: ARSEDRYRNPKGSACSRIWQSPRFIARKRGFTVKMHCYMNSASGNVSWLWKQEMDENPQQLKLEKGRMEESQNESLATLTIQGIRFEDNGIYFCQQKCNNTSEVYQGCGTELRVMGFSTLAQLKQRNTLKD


Target: T1, extracellular domain of human CD79b …
Assay: phage selection, Fab on phage
Protocol: For phage selection, the extracellular domain of CD79b (huCD79becd) (2 μg/ml) was immobilized in PBS on MaxiSorp microtiter plates (Nunc) overnight at 4° C. Plates were blocked for at least 1 h using Casein Blocker (Pierce). Phage were harvested from the culture supernatant and suspended in PBS containing 0.5% BSA and 0.05% Tween 20 (PBSBT). Following addition of the phage library and phage selection for 2 h, microtiter wells were washed extensively with PBS containing 0.05% Tween 20 (PBST) to remove unbound phage and bound phage were eluted by incubating the wells with 100 mM HCl for 30 min. Selection stringency may be increased during successive rounds of selection by increasing the number of washes with PBST or by incubating with soluble huCD79becd for increasing time periods prior to elution.

Binder | binding result
huMA79b graft variant with HVR-L1 of SEQ ID NO: 17 (Fab, name in Kabat numbering, V domains shown, Fab on phage; also called SPL-2 mutation) VH: EVQLVESGGGLVQPGGSLRLSCAASGYTFSSYWIEWVRQAPGKGLEWVGEILPGGGDTNYNEIFKGRFTISADTSKNTAYLQMNSLRAEDTAVYYCTRRVPVYFDYWGQGTLVTVSS VL: DIQMTQSPSSLSASVGDRVTITCKASKSVDYDGDSFLNWYQQKPGKAPKLLIYAASNLESGVPSRFSGSGSGTDFTLTISSLQPEDFATYYCQQSNEDPLTFGQGTKVEIKR | binds
huMA79b graft variant with HVR-L2 of SEQ ID NO: 18 (Fab, name in Kabat numbering, V domains shown, Fab on phage) VH: EVQLVESGGGLVQPGGSLRLSCAASGYTFSSYWIEWVRQAPGKGLEWVGEILPGGGDTNYNEIFKGRFTISADTSKNTAYLQMNSLRAEDTAVYYCTRRVPVYFDYWGQGTLVTVSS VL: DIQMTQSPSSLSASVGDRVTITCKASQSVDYDGDSFLNWYQQKPGKAPKLLIYAASNRESGVPSRFSGSGSGTDFTLTISSLQPEDFATYYCQQSNEDPLTFGQGTKVEIKR | binds
huMA79b graft variant with HVR-L2 of SEQ ID NO: 19 (Fab, name in Kabat numbering, V domains shown, Fab on phage) VH: EVQLVESGGGLVQPGGSLRLSCAASGYTFSSYWIEWVRQAPGKGLEWVGEILPGGGDTNYNEIFKGRFTISADTSKNTAYLQMNSLRAEDTAVYYCTRRVPVYFDYWGQGTLVTVSS VL: DIQMTQSPSSLSASVGDRVTITCKASQSVDYDGDSFLNWYQQKPGKAPKLLIYAASNLKSGVPSRFSGSGSGTDFTLTISSLQPEDFATYYCQQSNEDPLTFGQGTKVEIKR | binds
huMA79b graft variant with HVR-L2 of SEQ ID NO: 23 (Fab, name in Kabat numbering, V domains shown, Fab on phage) VH: EVQLVESGGGLVQPGGSLRLSCAASGYTFSSYWIEWVRQAPGKGLEWVGEILPGGGDTNYNEIFKGRFTISADTSKNTAYLQMNSLRAEDTAVYYCTRRVPVYFDYWGQGTLVTVSS VL: DIQMTQSPSSLSASVGDRVTITCKASQSVDYDGDSFLNWYQQKPGKAPKLLIYAASRLESGVPSRFSGSGSGTDFTLTISSLQPEDFATYYCQQSNEDPLTFGQGTKVEIKR | binds
huMA79b graft variant with HVR-L2 of SEQ ID NO: 24 (Fab, name in Kabat numbering, V domains shown, Fab on phage) VH: EVQLVESGGGLVQPGGSLRLSCAASGYTFSSYWIEWVRQAPGKGLEWVGEILPGGGDTNYNEIFKGRFTISADTSKNTAYLQMNSLRAEDTAVYYCTRRVPVYFDYWGQGTLVTVSS VL: DIQMTQSPSSLSASVGDRVTITCKASQSVDYDGDSFLNWYQQKPGKAPKLLIYAARKLGNGVPSRFSGSGSGTDFTLTISSLQPEDFATYYCQQSNEDPLTFGQGTKVEIKR | binds
huMA79b graft variant with HVR-L2 of SEQ ID NO: 25 (Fab, name in Kabat numbering, V domains shown, Fab on phage) VH: EVQLVESGGGLVQPGGSLRLSCAASGYTFSSYWIEWVRQAPGKGLEWVGEILPGGGDTNYNEIFKGRFTISADTSKNTAYLQMNSLRAEDTAVYYCTRRVPVYFDYWGQGTLVTVSS VL: DIQMTQSPSSLSASVGDRVTITCKASQSVDYDGDSFLNWYQQKPGKAPKLLIYAARKLKRGVPSRFSGSGSGTDFTLTISSLQPEDFATYYCQQSNEDPLTFGQGTKVEIKR | binds
huMA79b graft variant with HVR-L2 of SEQ ID NO: 26 (Fab, name in Kabat numbering, V domains shown, Fab on phage; also called L2-29 mutation) VH: EVQLVESGGGLVQPGGSLRLSCAASGYTFSSYWIEWVRQAPGKGLEWVGEILPGGGDTNYNEIFKGRFTISADTSKNTAYLQMNSLRAEDTAVYYCTRRVPVYFDYWGQGTLVTVSS VL: DIQMTQSPSSLSASVGDRVTITCKASQSVDYDGDSFLNWYQQKPGKAPKLLIYAARYLKRGVPSRFSGSGSGTDFTLTISSLQPEDFATYYCQQSNEDPLTFGQGTKVEIKR | binds
huMA79b graft variant with HVR-L2 of SEQ ID NO: 27 (Fab, name in Kabat numbering, V domains shown, Fab on phage) VH: EVQLVESGGGLVQPGGSLRLSCAASGYTFSSYWIEWVRQAPGKGLEWVGEILPGGGDTNYNEIFKGRFTISADTSKNTAYLQMNSLRAEDTAVYYCTRRVPVYFDYWGQGTLVTVSS VL: DIQMTQSPSSLSASVGDRVTITCKASQSVDYDGDSFLNWYQQKPGKAPKLLIYAARKLKSGVPSRFSGSGSGTDFTLTISSLQPEDFATYYCQQSNEDPLTFGQGTKVEIKR | binds
huMA79b graft variant with HVR-L2 of SEQ ID NO: 28 (Fab, name in Kabat numbering, V domains shown, Fab on phage) VH: EVQLVESGGGLVQPGGSLRLSCAASGYTFSSYWIEWVRQAPGKGLEWVGEILPGGGDTNYNEIFKGRFTISADTSKNTAYLQMNSLRAEDTAVYYCTRRVPVYFDYWGQGTLVTVSS VL: DIQMTQSPSSLSASVGDRVTITCKASQSVDYDGDSFLNWYQQKPGKAPKLLIYAARKLASGVPSRFSGSGSGTDFTLTISSLQPEDFATYYCQQSNEDPLTFGQGTKVEIKR | binds
huMA79b graft variant with HVR-L2 of SEQ ID NO: 29 (Fab, name in Kabat numbering, V domains shown, Fab on phage) VH: EVQLVESGGGLVQPGGSLRLSCAASGYTFSSYWIEWVRQAPGKGLEWVGEILPGGGDTNYNEIFKGRFTISADTSKNTAYLQMNSLRAEDTAVYYCTRRVPVYFDYWGQGTLVTVSS VL: DIQMTQSPSSLSASVGDRVTITCKASQSVDYDGDSFLNWYQQKPGKAPKLLIYAAGILARGVPSRFSGSGSGTDFTLTISSLQPEDFATYYCQQSNEDPLTFGQGTKVEIKR | binds
huMA79b graft variant with HVR-L2 of SEQ ID NO: 30 (Fab, name in Kabat numbering, V domains shown, Fab on phage) VH: EVQLVESGGGLVQPGGSLRLSCAASGYTFSSYWIEWVRQAPGKGLEWVGEILPGGGDTNYNEIFKGRFTISADTSKNTAYLQMNSLRAEDTAVYYCTRRVPVYFDYWGQGTLVTVSS VL: DIQMTQSPSSLSASVGDRVTITCKASQSVDYDGDSFLNWYQQKPGKAPKLLIYAARKLRSGVPSRFSGSGSGTDFTLTISSLQPEDFATYYCQQSNEDPLTFGQGTKVEIKR | binds
huMA79b graft variant with HVR-L2 of SEQ ID NO: 31 (Fab, name in Kabat numbering, V domains shown, Fab on phage; also called L2-38 mutation) VH: EVQLVESGGGLVQPGGSLRLSCAASGYTFSSYWIEWVRQAPGKGLEWVGEILPGGGDTNYNEIFKGRFTISADTSKNTAYLQMNSLRAEDTAVYYCTRRVPVYFDYWGQGTLVTVSS VL: DIQMTQSPSSLSASVGDRVTITCKASQSVDYDGDSFLNWYQQKPGKAPKLLIYAARKLGSGVPSRFSGSGSGTDFTLTISSLQPEDFATYYCQQSNEDPLTFGQGTKVEIKR | binds
huMA79b graft variant with HVR-L2 of SEQ ID NO: 32 (Fab, name in Kabat numbering, V domains shown, Fab on phage) VH: EVQLVESGGGLVQPGGSLRLSCAASGYTFSSYWIEWVRQAPGKGLEWVGEILPGGGDTNYNEIFKGRFTISADTSKNTAYLQMNSLRAEDTAVYYCTRRVPVYFDYWGQGTLVTVSS VL: DIQMTQSPSSLSASVGDRVTITCKASQSVDYDGDSFLNWYQQKPGKAPKLLIYAARHLKRGVPSRFSGSGSGTDFTLTISSLQPEDFATYYCQQSNEDPLTFGQGTKVEIKR | binds
huMA79b graft variant with HVR-L2 of SEQ ID NO: 33 (Fab, name in Kabat numbering, V domains shown, Fab on phage) VH: EVQLVESGGGLVQPGGSLRLSCAASGYTFSSYWIEWVRQAPGKGLEWVGEILPGGGDTNYNEIFKGRFTISADTSKNTAYLQMNSLRAEDTAVYYCTRRVPVYFDYWGQGTLVTVSS VL: DIQMTQSPSSLSASVGDRVTITCKASQSVDYDGDSFLNWYQQKPGKAPKLLIYASRYLSRGVPSRFSGSGSGTDFTLTISSLQPEDFATYYCQQSNEDPLTFGQGTKVEIKR | binds
huMA79b graft variant with HVR-L2 of SEQ ID NO: 34 (Fab, name in Kabat numbering, V domains shown, Fab on phage) VH: EVQLVESGGGLVQPGGSLRLSCAASGYTFSSYWIEWVRQAPGKGLEWVGEILPGGGDTNYNEIFKGRFTISADTSKNTAYLQMNSLRAEDTAVYYCTRRVPVYFDYWGQGTLVTVSS VL: DIQMTQSPSSLSASVGDRVTITCKASQSVDYDGDSFLNWYQQKPGKAPKLLIYAGSKLLRGVPSRFSGSGSGTDFTLTISSLQPEDFATYYCQQSNEDPLTFGQGTKVEIKR | binds
huMA79b graft variant with HVR-L2 of SEQ ID NO: 35 (Fab, name in Kabat numbering, V domains shown, Fab on phage) VH: EVQLVESGGGLVQPGGSLRLSCAASGYTFSSYWIEWVRQAPGKGLEWVGEILPGGGDTNYNEIFKGRFTISADTSKNTAYLQMNSLRAEDTAVYYCTRRVPVYFDYWGQGTLVTVSS VL: DIQMTQSPSSLSASVGDRVTITCKASQSVDYDGDSFLNWYQQKPGKAPKLLIYAASNRKSGVPSRFSGSGSGTDFTLTISSLQPEDFATYYCQQSNEDPLTFGQGTKVEIKR | binds
huMA79b graft variant with HVR-L2 of SEQ ID NO: 36 (Fab, name in Kabat numbering, V domains shown, Fab on phage) VH: EVQLVESGGGLVQPGGSLRLSCAASGYTFSSYWIEWVRQAPGKGLEWVGEILPGGGDTNYNEIFKGRFTISADTSKNTAYLQMNSLRAEDTAVYYCTRRVPVYFDYWGQGTLVTVSS VL: DIQMTQSPSSLSASVGDRVTITCKASQSVDYDGDSFLNWYQQKPGKAPKLLIYAASKLGSGVPSRFSGSGSGTDFTLTISSLQPEDFATYYCQQSNEDPLTFGQGTKVEIKR | binds
huMA79b graft variant with HVR-L3 of SEQ ID NO: 20 (Fab, name in Kabat numbering, V domains shown, Fab on phage; also called SPL-5 mutation) VH: EVQLVESGGGLVQPGGSLRLSCAASGYTFSSYWIEWVRQAPGKGLEWVGEILPGGGDTNYNEIFKGRFTISADTSKNTAYLQMNSLRAEDTAVYYCTRRVPVYFDYWGQGTLVTVSS VL: DIQMTQSPSSLSASVGDRVTITCKASQSVDYDGDSFLNWYQQKPGKAPKLLIYAASNLESGVPSRFSGSGSGTDFTLTISSLQPEDFATYYCQQSNSDPLTFGQGTKVEIKR | binds
huMA79b graft variant with HVR-L3 of SEQ ID NO: 21 (Fab, name in Kabat numbering, V domains shown, Fab on phage) VH: EVQLVESGGGLVQPGGSLRLSCAASGYTFSSYWIEWVRQAPGKGLEWVGEILPGGGDTNYNEIFKGRFTISADTSKNTAYLQMNSLRAEDTAVYYCTRRVPVYFDYWGQGTLVTVSS VL: DIQMTQSPSSLSASVGDRVTITCKASQSVDYDGDSFLNWYQQKPGKAPKLLIYAASNLESGVPSRFSGSGSGTDFTLTISSLQPEDFATYYCQQSNKDPLTFGQGTKVEIKR | binds
huMA79b graft variant with HVR-H1 of SEQ ID NO: 57 (huMA79b H1-6) (Fab, V domains shown, Fab on phage; also called H1-6 mutation) VH: EVQLVESGGGLVQPGGSLRLSCAASGYPFTRYWINWVRQAPGKGLEWVGEILPGGGDTNYNEIFKGRFTISADTSKNTAYLQMNSLRAEDTAVYYCTRRVPVYFDYWGQGTLVTVSS VL: DIQMTQSPSSLSASVGDRVTITCKASQSVDYDGDSFLNWYQQKPGKAPKLLIYAASNLESGVPSRFSGSGSGTDFTLTISSLQPEDFATYYCQQSNEDPLTFGQGTKVEIK | binds
